Experimental data from patent US20170342161A1 (APROGEN KIC, published 2017).
Each block holds one binder with its values, some of them ahead of it.

How the values were obtained:
[1] = molecular target: T1, carbonic anhydrase 12 (CA-XII) as expressed by human tumor cell lines (human, UniProt O43570 25-354); test: flow cytometry, percent positive cells, NCI-H460 (lung)
T1 construct: also called CA12; CA12 antigen
Experimental: (§1) 27B6 and 4B4 monoclonal antibodies were analyzed for binding to various cell lines obtained from KCLB (Korean Cell Line Bank) and SNU (Seoul National University) using flow cytometry. Briefly, various cell lines were obtained from KCLB (Korean Cell Line Bank) and SNU (Seoul National University). At 37° C. under a 5% CO₂ atmosphere, L-132, SW-900, DU145, LNCap, MCF-7, Huh7, and Hs-578T were cultured in Dulbecco's MEM (GIBCO, Invitrogen) supplemented with 10% heat-inactivated fetal bovine serum (FBS; GIBCO, Invitrogen) and A549, NCI-H460, NCI-H417, DLD-1, HCT116, HT-29, SW-480, SW-620, LS174T, PC-3, SNU1, SNU638, SNU719, MKN1, MKN28, MKN45, MKN74, NCI-N87, SK-BR3, MDA-MB231, and MDA-MB453 were cultured in RPMI 1640 (GIBCO, Invitrogen) supplemented with 10% heat-inactivated FBS. […]
(§2) The cultured cancer cell lines were incubated with the 27B6 or the 4B4 monoclonal antibody of the present disclosure at 4° C. for 30 min, washed with PBS, and treated with FITC-conjugated goat anti-mouse IgG (DiNona Inc, Korea) at 4° C. for 15 min. […] Also, titers of the 27B6 and the 4B4 antibody were measured in various solid tumor cell lines.

[2] = molecular target: T1, carbonic anhydrase 12 (CA-XII) as …; test: flow cytometry (A549 cells, per paragraph 138)
Experimental: (§3) Three days post transfection, the supernatant was taken and added to A549 cells, which were then incubated at 4° C. for 30 min. Unbound antibodies were removed by centrifugation, together with 3 ml of PBS, at 1500 rpm for 3 min. The bound antibodies were detected by incubation with a 150-fold dilution of the secondary antibody goat anti-Mouse Ig-FITC (Dinona) at 4° C. for 15 min, followed by washing with 3 ml of PBS in the same manner. Thereafter, the antibody titer to A549 cells was measured by flow cytometry. Subsequently, a stable cell line was established. For this, the medium was exchanged with a PowerCHO medium (LONZA, Switzerland) supplemented with 30 nM MTX (Sigma, USA) and 200 μg/ml G418 (Invitrogen, USA), after which clone selection was started. Concentrations of MTX and G418 in the selection medium were increased with the repetition of clone selection rounds. Each round was set to be three weeks. The final round of clone selection was performed in a PowerCHO medium supplemented with 1000 nM of MTX and 400 μg/ml of G418. Thereafter, the final cell line was established as a single colony through limiting dilution.

[3] = molecular target: T1, carbonic anhydrase 12 (CA-XII) as …; test: flow cytometry, percent positive cells, HCT116 (colon)
Experimental: as §1, §2

[4] = molecular target: T1, carbonic anhydrase 12 (CA-XII) as …; test: flow cytometry (A549 cells, per paragraph 117)
Experimental: as §3, with “A549 cells” for “A549 cells,”, “measured using” for “measured by”, “nM” for “nM of”, “μg/ml” for “μg/ml of”

T1 sequence (O43570 25-354 limits assumed): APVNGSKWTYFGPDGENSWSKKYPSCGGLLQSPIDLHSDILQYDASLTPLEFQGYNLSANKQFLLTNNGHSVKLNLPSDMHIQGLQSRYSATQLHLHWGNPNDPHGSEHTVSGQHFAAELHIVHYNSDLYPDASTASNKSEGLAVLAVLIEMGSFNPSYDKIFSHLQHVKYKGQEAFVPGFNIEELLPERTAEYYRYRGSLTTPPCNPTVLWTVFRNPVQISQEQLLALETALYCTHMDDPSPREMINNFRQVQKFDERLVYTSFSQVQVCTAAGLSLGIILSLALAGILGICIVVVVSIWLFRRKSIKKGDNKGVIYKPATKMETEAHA

binding result [1]: binds
B1: 4B4 monoclonal antibody (antibody, V domains shown)
VH: EIQLQQSGPELVKPGASVKISCKASGYSYTDYNIYWVRQSQGKSLDWIGYIDPANGDTTYNQKFKGKATLTVDKSSSTAFMHLNSLTSDGSAVYFCARPIYYGVYWYFDVWGAGTTVTVS
VL: DIVMTQAAPSVPVTPGESVSISCRSSKSLLHSNGNTYLYWFLQRPGQSPQLLIYRMSNLASGVPDRFSGSGSGTAFTLRISRVEAEDVGVYYCMQHLEYPFTFGSGTKLEIK
notes: Mouse hybridoma antibody; also called 4B4 Ab; mouse 4B4 antibody

binding result [2]: binds
B2: 4B4 chimeric antibody (antibody, V domains shown)
VH: EIQLQQSGPELVKPGASVKISCKASGYSYTDYNIYWVRQSQGKSLDWIGYIDPANGDTTYNQKFKGKATLTVDKSSSTAFMHLNSLTSDGSAVYFCARPIYYGVYWYFDVWGAGTTVTVS
VL: DIVMTQAAPSVPVTPGESVSISCRSSKSLLHSNGNTYLYWFLQRPGQSPQLLIYRMSNLASGVPDRFSGSGSGTAFTLRISRVEAEDVGVYYCMQHLEYPFTFGSGTKLEIK
notes: Chimeric antibody: mouse 4B4 variable regions, the rest 'substituted with the Fc of the human antibody'; Produced in CHO DG44 cells; also called chimeric 4B4; 4B4-HuIgFc

binding result [3]: binds
B3: 27B6 monoclonal antibody (antibody, mouse IgG1, V domains shown)
VH: QVQLQQSGPQLVWPGASVKISCNTSGYSFTNYWIHWVKQRPGQGLEWIGMIDPSDSETRLNQKFKDKTTLTVDRSSSTAYMQVSSSTSEDSAVYYCTRGIRGGYYAMDYWGQGTSVTVSS
VL: DIQMTQTTSSLSASLGDRVTISCRASQDISNYLNWYQQKPEGTVKLLIYYTSRLHSGVPSRFSGSGSGTDYSLTISNLEQEDIATYFCQQGDTLPRTFGEGTKLEIR
notes: also called 27B6 Ab; mouse 27B6 antibody

binding result [4]: binds
B4: 27B6 chimeric antibody (antibody, V domains shown)
VH: QVQLQQSGPQLVWPGASVKISCNTSGYSFTNYWIHWVKQRPGQGLEWIGMIDPSDSETRLNQKFKDKTTLTVDRSSSTAYMQVSSSTSEDSAVYYCTRGIRGGYYAMDYWGQGTSVTVSS
VL: DIQMTQTTSSLSASLGDRVTISCRASQDISNYLNWYQQKPEGTVKLLIYYTSRLHSGVPSRFSGSGSGTDYSLTISNLEQEDIATYFCQQGDTLPRTFGEGTKLEIR
notes: Chimeric antibody: mouse 27B6 variable regions, the rest 'substituted with the Fc of the human antibody'; Produced in CHO DG44 cells; also called chimeric 27B6; 27B6-HuIgFc
